Reference: patent US20260035464A1 (STAIDSON BIOPHARMA, published 2026)

Columns and labels:
[1] = biological target: T1, extracellular domain of human BTLA with FAS, expressed on Jurkat cells (human, UniProt Q7Z6A9 31-157; P25445 174-335, limits assumed); experiment: cell-based or functional assay
T1 sequence (looked up): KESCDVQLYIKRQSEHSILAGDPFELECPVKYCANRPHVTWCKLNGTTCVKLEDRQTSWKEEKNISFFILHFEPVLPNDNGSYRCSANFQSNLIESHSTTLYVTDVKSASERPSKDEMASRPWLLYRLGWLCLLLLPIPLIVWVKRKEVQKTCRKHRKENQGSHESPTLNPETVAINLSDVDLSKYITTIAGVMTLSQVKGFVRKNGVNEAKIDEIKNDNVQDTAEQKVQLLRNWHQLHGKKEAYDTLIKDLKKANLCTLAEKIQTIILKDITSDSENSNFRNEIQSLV

[2] = biological target: T2, human BTLA (Uniprot Q7Z6A9) expressed on cells (human, UniProt Q7Z6A9 31-289); experiment: cell-based or functional assay
[3] = biological target: T2, human BTLA (Uniprot Q7Z6A9) expressed …; experiment: flow cytometry on huBTLA-overexpressing Expi293 cells, MFI
Experimental: (§1) Expi293 cells stably overexpressing huBTLA were incubated with the chimeric anti-BTLA antibodies 83F2 or 86B7 in PBS containing 0.5% BSA, 1 mM EDTA, and 0.1% sodium azide (FACS buffer) for 30 minutes at 4° C. The cells were washed, and then incubated with 10 nM phycoerythrin (PE) conjugated anti-Human Fc Ab (BioLegend, cat #409304) for 20 minutes at 4° C. Cells were washed and then analyzed by flow cytometry with Attune (ThermoFisher Scientific). Data were analyzed with FlowJo software. Antibody binding is represented as median fluorescence intensity (MFI).
FACS based binding assays of humanized anti-BTLA antibodies were performed as described above in Example 3.

[4] = biological target: T2, human BTLA (Uniprot Q7Z6A9) expressed …; experiment: flow cytometry on Expi293 cells stably overexpressing huBTLA, PE anti-human Fc
From the text: To examine the binding of the chimeric anti-BTLA antibodies to huBTLA overexpressing cells, Expi293 cells stably overexpressing huBTLA were used to perform FACS analysis. Briefly, the coding sequence of huBTLA (Uniprot, Q7Z6A9) was cloned into a lentiviral vector and the recombinant virus was packaged according to the instruction of the virus packaging kit (Lenti-X™ Packaging Single Shots, Cat #631275, Takada). The Expi293 cells were transduced with the recombinant virus.
as §1

[5] = biological target: T3, rhesus monkey BTLA extracellular domain protein with His tag (Sino Biological, cat #90250-C08H) (rhesus monkey, UniProt G7MKA9 31-157); experiment: ELISA, rhesus monkey BTLA coated at 0.333 ug/mL, anti-human IgG Fc-AP detection
T3 construct: extracellular domain; Bought protein; also called His-tag-rhesus monkey BTLA; not shown: His tag
T3 sequence: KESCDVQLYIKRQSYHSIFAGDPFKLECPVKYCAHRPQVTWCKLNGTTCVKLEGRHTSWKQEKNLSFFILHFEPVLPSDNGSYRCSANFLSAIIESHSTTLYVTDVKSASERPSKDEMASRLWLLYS
Experimental: (§2) BTLA binding of purified recombinant chimeric antibodies by ELISA: The huBTLA and rhesus monkey BTLA antigen binding ELISA was performed on the purified recombinant chimeric antibodies. Briefly, 384-well, clear flat bottom high binding plates (Corning, cat #3700) were coated overnight at 4° C. with 0.333 μg/mL of huBTLA or rhesus monkey BTLA in PBS. The following purified process was performed as described in ELISA binding assay in Example 2, except that the secondary antibody was goat anti human IgG Fc-AP (Southern Biotech, cat #2014-04).

[6] = biological target: T4, huBTLA as coated in the binding ELISA of Example 3 (tag not stated) (human, UniProt Q7Z6A9 31-157); experiment: ELISA, plate coated with huBTLA, detection with goat anti-human IgG Fc-AP, OD405
T4 construct: Detection was with anti-human IgG Fc
T4 sequence: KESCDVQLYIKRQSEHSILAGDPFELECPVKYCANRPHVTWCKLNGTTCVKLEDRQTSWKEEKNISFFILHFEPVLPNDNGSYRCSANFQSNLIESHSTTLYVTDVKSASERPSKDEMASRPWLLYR
Experimental: as §2

[7] = biological target: T5, human BTLA extracellular domain with C-terminal 10xHis tag (human, UniProt Q7Z6A9 31-157); experiment: BLI (Octet RED96), antibody captured on AHC biosensor, His-tag-huBTLA in solution, 1:1 model
T5 construct: also called HuBTLA-His; His-tag-huBTLA
T5 sequence: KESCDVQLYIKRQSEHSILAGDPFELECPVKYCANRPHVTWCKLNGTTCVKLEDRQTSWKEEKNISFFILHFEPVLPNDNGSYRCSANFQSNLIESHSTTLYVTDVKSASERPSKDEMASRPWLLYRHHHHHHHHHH
Experimental: The following kinetic assay was performed using anti-human IgG Fc capture (AHC) biosensors (ForteBio) in kinetics buffer (PBS, 0.1% Tween-20 and 1% bovine serum albumin): (a) antibody (2 μg/mL) for 300 sec, (b) baseline for 120 sec, (c) association with purified His-tag-huBTLA (2.5, 0.5 and 0 μg/mL) and His-tag-rhesus monkey BTLA (Sino Biologcal, cat #90250-C08H) (2.5, 0.5 and 0 μg/mL) for 420 sec and (d) dissociation for 1200 sec. Data fitting and analysis was performed with Octet data analysis software 8.0 (ForteBio) using a 1:1 binding model after Savitzky-Golay filtering.

[8] = biological target: T2, human BTLA (Uniprot Q7Z6A9) expressed …; experiment: flow cytometry blocking on huBTLA-overexpressing Expi293 cells; competitor human HVEM-mouse IgG2a Fc
Experimental: (§3) Expi293 cells stably overexpressing huBTLA were incubated with chimeric anti-BTLA antibody 83F2 or 86B7 for 30 minutes at 4° C. The cells were washed, and then incubated with human HVEM-mouse IgG2a Fc recombinant protein (Acro Biosystems, cat #HVM-H5255) at […] concentration for 20 minutes at 4° C. The human HVEM bindings were detected by goat anti-mouse Alexa 488 secondary antibody (ThermoFisher, cat #A-11029). Cells were washed and acquired by flow cytometry with Attune. Data were analyzed with FlowJo software. BTLA binding is represented as MFI.

[9] = biological target: T2, human BTLA (Uniprot Q7Z6A9) expressed …; experiment: flow cytometry blocking assay on huBTLA-overexpressing Expi293 cells, antibody titrated, soluble human HVEM-mouse IgG2a Fc detected
Experimental: as §3
FACS based blocking assays of humanized anti-BTLA antibodies were performed as described above in Example 3.

B1: chimeric anti-BTLA antibody 86B7 (antibody, V domains shown)
VH: QVTLKESGPGILQPSQTLSLTCSFSGFSLSTFGMGVSWIRQPSGKGLEWLAHIYWDDDKRFNPSLKSRLSISKDTSNNQVFLKITTVDTADTATYYCARGNWDGETYFDYWGQGTTLTVSS
VL: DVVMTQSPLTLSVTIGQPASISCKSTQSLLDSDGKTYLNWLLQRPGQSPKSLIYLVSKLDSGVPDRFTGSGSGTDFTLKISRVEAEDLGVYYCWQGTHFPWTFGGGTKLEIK
EC50 of inhibition of huHVEM-Fc-induced apoptosis, Jurkat-huBTLA-FAS cells (ATP luminescence) [1]: 0.109 nM
EC50 of recovery of IL-2 production, Raji-HVEM/primary human T cell coculture [2]: 1.68 nM
EC50 (read off the curve) [3]: ~0.8 nM
EC50 [4]: 0.554 nM
EC50 [5]: 0.0559 nM
EC50 (read off the curve) [6]: ~0.4 nM
Kd [7]: 0.257 nM
koff [7]: 9.98e-05 s⁻¹
kon [7]: 389000 M⁻¹ s⁻¹
IC50 [8]: 0.259 nM
IC50 (read off the curve) [9]: ~0.4 nM
